Measurements published in paper PMC7040222.

System: N=C(N)NCCC[C@H](NC(=O)[C@H](Cc1ccccc1)NC(=O)OCc1ccccc1)C(=O)Nc1ccc([N+](=O)[O-])cc1
Assay: purified protein
Details: proenzyme heat-shocked 10 min at 56°C, then activated, assay at room temperature

Sequence of EP-B2 (Hordeum vulgare) (chain, as listed by the source): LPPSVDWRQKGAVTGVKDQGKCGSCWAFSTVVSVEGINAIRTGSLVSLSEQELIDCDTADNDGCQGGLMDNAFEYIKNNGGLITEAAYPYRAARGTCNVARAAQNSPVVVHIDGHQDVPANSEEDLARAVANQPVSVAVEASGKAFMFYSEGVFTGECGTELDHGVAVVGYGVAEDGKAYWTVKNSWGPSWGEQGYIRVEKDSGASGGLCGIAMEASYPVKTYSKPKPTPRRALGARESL
Sequence of EP-B2 (Hordeum vulgare; K311A) (chain, as listed by the source K311A): as the sequence (chain, as listed by the source) above, with K178A counted along it

Substance | Km | Vmax | Km (variant M3) | Vmax (variant M3)
EP-B2 (Hordeum vulgare) | 530.0 µM | 0.142 µM/min |  | 
EP-B2 (Hordeum vulgare; K311A) |  |  | 1188 µM | 0.236 µM/min
